# Measured values taken from patent publication US20130224191A1, “NOTUM PROTEIN MODULATORS AND METHODS OF USE” (priority 2010, published 2013).
# T1: porcine pancreatic lipase (Sus scrofa, UniProt P00591)
# T1 construct: purchased Sigma Aldrich
# T1 sequence (P00591 1-450): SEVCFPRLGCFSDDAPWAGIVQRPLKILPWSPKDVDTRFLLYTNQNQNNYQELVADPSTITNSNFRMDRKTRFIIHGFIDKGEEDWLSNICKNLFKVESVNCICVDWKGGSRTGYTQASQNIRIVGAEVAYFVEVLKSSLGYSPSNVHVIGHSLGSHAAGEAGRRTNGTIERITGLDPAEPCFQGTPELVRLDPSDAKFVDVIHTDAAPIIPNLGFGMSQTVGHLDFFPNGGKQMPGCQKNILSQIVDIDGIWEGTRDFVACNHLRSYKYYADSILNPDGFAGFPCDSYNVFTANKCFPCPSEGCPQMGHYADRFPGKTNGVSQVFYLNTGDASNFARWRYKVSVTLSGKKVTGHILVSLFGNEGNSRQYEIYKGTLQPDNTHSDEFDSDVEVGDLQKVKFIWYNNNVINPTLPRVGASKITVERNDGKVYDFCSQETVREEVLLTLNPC
# T2: Notum (Homo sapiens, UniProt Q6P988)
# T2 sequence (Q6P988 20-496): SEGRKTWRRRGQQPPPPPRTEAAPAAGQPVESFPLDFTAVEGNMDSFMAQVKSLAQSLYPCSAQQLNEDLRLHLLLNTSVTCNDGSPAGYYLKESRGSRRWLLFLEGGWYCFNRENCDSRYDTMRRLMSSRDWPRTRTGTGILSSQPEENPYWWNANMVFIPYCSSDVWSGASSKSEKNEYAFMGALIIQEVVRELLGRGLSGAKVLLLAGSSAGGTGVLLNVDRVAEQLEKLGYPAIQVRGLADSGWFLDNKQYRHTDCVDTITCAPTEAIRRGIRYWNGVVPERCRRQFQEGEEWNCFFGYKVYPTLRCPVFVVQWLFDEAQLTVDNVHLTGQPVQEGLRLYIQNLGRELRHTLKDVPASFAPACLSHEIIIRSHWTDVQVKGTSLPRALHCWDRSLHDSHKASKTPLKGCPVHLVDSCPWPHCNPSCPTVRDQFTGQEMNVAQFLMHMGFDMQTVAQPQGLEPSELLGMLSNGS
# T3: mouse Notum (construct not specified at the place of use) (mouse, UniProt Q8R116 20-503, limits assumed)
# T3 construct: Purified antigen from transient transfection of mouse Notum cDNA; also called murine Notum
# T3 sequence (looked up): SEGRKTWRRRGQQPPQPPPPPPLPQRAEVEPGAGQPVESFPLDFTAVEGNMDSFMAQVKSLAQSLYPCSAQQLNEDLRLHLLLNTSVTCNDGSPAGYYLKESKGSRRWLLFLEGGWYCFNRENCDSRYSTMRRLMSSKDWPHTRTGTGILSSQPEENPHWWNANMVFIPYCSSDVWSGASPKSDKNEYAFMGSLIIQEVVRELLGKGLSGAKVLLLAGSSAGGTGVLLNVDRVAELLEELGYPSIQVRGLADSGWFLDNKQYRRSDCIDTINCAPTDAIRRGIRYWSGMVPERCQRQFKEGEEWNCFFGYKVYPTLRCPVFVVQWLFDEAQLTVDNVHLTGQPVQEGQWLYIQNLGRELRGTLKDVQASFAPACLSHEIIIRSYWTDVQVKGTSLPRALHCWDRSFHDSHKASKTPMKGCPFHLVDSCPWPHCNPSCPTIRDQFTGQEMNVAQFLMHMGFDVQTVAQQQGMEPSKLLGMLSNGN
# Legend:
# [1] = molecular target: T1, porcine pancreatic lipase; assay: Inhibition of porcine pancreatic lipase (Tween 20); type: biochemical
# Experimental: Briefly, recombinant hNotum (1 μg/well) was added to an assay buffer containing 50 mM Tris, pH 7.4, 33.3 mM CaCl2, and 0.33% Tween-20. When the Tween 20 monolauryl group is cleaved by lipases (e.g. hNotum), the free fatty acid forms an insoluble complex with the Ca^2+ cations resulting in a turbid solution, the OD of which can be measured at 405 nm to provide a measure of lipase activity. As a positive control, the activity of porcine pancreatic lipase (Sigma Aldrich) was measured in the same assay.
# In order to take advantage of this enzymatic property and further exemplify the properties of the present invention, an assay was run to determine the effects of Notum modulators on the lipolytic activity of Notum. To that end, various concentrations of SC2.D2.2 were preincubated with hNotum for a set period prior to adding the mixture to the assay buffer and measuring the resulting enzymatic activity as described above. The results of the assay are graphically represented in FIG. 20
# Notum = molecular target: T2, Notum; assay: Epitope mapping ELISA, human Notum; type: binding; parameters: made in house
# Experimental: Binding of SC2.D2.2 and other mouse mAbs to purified Notum molecules generated from transient transfection of Human and Mouse Notum cDNAs were tested using ELISA assay with human Notum, mouse Notum and chimeric human/mouse Notum coated directly on ELISA plate. Binding of anti-Notum mAbs was detected with HRP-conjugated goat anti mouse antibody and followed by colorimetric horseradish peroxidase substrate (TMB substrate Thermo Scientific). The absorbance of each well of the ELISA plates was measured at 450 nm on a microplate autoreader.
# [2] = molecular target: T3, mouse Notum (construct not specified at …); assay: ELISA, Notum coated directly on plate
# HCT-116 cells = assay: Cell survival/proliferation, CellTiterGlo, HCT-116; type: cell-based, human
# Experimental: To determine whether Notum protein impacts cell proliferation and/or apoptosis of human colorectal cancer cells, HCT-116 cells or mouse lineage-depleted NTX tumor cells (i.e. human tumor cells) were plated as described below and exposed to recombinant hNotum (e.g. hNotum-His or hNotum-hFc) and anti-Notum antibodies. Cell numbers were then assessed 12-14 days later.
# Cells were then incubated for 14 days at 37° C., 5% CO2 and 5% O2 and the number of viable cells was assessed using Promega's CellTiterGlo assay kit per the manufacturer's instructions. For the HCT-116 cell line (a commercially available colorectal tumor cell line), cells were plated at 2,000 cells per well in DMEM+1% FBS, followed 24-hours later by the addition of serum free DMEM containing recombinant human Notum in the presence or absence of monoclonal antibodies SC2.D2.2 or SC2.10B3. HCT-116 cells were then incubated for 12 days at 37° C., 5% CO2 and cell viability was assessed with Promega's CellTiterGlo assay kit. Higher readings are indicative of higher viable cell counts.
molecule,measurement,setting,value
"SC2.D2.2 (antibody, V domains shown, also called murine SC2.D2.2) VH: DVQLVESGGGLVQPGGSRKISCAASGFTFSSYGMHWVRQAPEKGLEWVAYISSSTVTTYYADTVKGRFTISRDNANNTLFLQMTSLRSEDTAMYYCSRQNWDGGYFDVWGAGTTVTVSS VL: DIVLTQSLASLAVSLGQRATISCRASKSVSSSGYSYMHWYQQKPGQPPKLLIYLASNLESGVPARFSGSGSGTDFTLNIHPVEEEDAATYYCQHSRALPLTFGAGTKLELKR",effect on lipase activity of porcine pancreatic lipase,[1],not severely impacting the lipase activity
same,binding to human Notum,Notum,confirmed the binding
same,binding result,[2],no binding
same,effect on hNotum induced increase in cell numbers,HCT-116 cells,blocked
